Source: IntAct's records for PubMed 27462807

How the values were obtained:
tp53b_human TP53BP1 [1] = target: tp53b_human TP53BP1 (UniProt Q12888)
tp53b_human TP53BP1 [2] = target: tp53b_human TP53BP1 (UniProt Q12888); remark: listed apart in the source

tp53b_human TP53BP1, sequence (Q12888 whole entry): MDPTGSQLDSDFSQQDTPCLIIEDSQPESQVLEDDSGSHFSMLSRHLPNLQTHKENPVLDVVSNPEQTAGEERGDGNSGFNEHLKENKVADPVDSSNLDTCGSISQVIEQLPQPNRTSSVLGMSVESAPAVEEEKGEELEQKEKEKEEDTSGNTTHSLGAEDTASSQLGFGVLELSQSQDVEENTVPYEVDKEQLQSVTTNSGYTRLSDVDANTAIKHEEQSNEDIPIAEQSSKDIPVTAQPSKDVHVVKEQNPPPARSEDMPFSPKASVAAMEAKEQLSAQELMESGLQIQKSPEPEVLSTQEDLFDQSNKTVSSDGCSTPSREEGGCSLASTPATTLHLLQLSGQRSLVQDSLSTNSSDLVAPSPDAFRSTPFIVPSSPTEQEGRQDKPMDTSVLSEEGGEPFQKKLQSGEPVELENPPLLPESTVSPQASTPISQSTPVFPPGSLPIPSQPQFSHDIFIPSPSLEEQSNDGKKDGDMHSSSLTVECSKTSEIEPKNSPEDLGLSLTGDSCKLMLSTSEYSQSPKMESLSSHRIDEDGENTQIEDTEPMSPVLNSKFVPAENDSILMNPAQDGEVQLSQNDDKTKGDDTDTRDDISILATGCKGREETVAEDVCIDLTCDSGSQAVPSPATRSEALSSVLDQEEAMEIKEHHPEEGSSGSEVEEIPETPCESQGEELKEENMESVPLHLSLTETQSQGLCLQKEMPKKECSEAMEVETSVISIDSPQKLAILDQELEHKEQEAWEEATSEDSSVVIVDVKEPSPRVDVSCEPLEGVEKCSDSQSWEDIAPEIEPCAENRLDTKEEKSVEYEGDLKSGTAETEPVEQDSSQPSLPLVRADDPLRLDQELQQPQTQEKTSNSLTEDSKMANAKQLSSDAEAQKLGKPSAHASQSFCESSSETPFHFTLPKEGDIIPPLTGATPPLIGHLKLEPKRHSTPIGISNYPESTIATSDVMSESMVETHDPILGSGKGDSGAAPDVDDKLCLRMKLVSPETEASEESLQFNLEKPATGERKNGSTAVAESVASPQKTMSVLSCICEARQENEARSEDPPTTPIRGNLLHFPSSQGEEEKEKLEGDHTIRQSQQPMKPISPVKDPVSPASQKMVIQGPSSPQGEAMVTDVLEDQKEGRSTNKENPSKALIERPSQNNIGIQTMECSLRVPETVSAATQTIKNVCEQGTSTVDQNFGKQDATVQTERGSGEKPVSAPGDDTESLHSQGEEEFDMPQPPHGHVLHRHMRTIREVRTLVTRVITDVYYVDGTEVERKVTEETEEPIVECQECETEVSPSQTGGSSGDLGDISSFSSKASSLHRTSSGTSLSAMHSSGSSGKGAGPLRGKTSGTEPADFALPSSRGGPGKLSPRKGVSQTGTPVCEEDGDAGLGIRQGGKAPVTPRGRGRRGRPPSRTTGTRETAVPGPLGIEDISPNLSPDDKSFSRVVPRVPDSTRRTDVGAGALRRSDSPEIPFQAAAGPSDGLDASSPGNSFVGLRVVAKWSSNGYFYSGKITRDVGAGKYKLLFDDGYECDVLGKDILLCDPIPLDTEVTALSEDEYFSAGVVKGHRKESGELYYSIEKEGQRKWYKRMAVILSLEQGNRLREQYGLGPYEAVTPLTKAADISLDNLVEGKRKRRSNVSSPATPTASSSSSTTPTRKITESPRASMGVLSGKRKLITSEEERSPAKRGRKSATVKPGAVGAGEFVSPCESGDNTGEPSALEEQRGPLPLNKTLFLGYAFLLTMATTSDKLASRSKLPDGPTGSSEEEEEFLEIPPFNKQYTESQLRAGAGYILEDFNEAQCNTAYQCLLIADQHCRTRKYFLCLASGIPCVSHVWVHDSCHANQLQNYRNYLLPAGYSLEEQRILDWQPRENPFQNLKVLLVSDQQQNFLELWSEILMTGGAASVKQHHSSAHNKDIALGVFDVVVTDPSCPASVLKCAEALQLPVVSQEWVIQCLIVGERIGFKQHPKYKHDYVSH

| Substance | effect of a mutation on the interaction (tp53b_human TP53BP1 [1]) | effect of a mutation on the interaction (tp53b_human TP53BP1 [2]) |
| --- | --- | --- |
| Histone H2B type 1-C/E/F/G/I (Homo sapiens) (from UniProt P62807) E106C | with no effect |  |
| Histone H2B type 1-C/E/F/G/I (Homo sapiens) (from UniProt P62807) N85C |  | with no effect |
